Measurements reported in patent US20060052294A1 (CINCINNATI CHILDREN S HOSPITAL MEDICAL CENTER, published 2006).
Changes are numbered by the printed parent chain. Names may count otherwise.

B1: C5a-(1-66,Cys27Ala)-A8B-Del.71-73 (ligand)
chain: TLQKKIEEIAAKYKHSVVKKCCYDGAAVNNDETCEQRAARISLGPRCIKAFTECCVVASQLRANISFKRS
notes: also called C5a-(1-66, Cys27Ala)-FKRS-70; 67-FKRS-70
B2: recombinant human C5a (ligand)
chain: TLQKKIEEIAAKYKHSVVKKCCYDGACVNNDETCEQRAARISLGPRCIKAFTECCVVASQLRANISHKDMQLGR
notes: 74-residue recombinant human C5a; also called rhC5a; rC5a
B3: C5a-(1-66,Cys27Ala)-A8B-Lys69-Ala70 (ligand)
chain: TLQKKIEEIAAKYKHSVVKKCCYDGAAVNNDETCEQRAARISLGPRCIKAFTECCVVASQLRANISFKKALLR
B4: C5a-(1-66,Cys27Ala)-A8B (ligand)
chain: B3 chain with K69R, A70S
notes: Mutein of human C5a, expressed in the E. coli periplasm without a fusion partner and purified on mAb 561; also called C5aRA A8B; mutein A8B
B5: C5a-(1-66,Cys27Ala)-A8B-Ala69 (ligand)
chain: B3 chain with K69A, A70S
notes: also called A8B-Arg69Ala
B6: C5a-(1-66,Cys27Ala)-A8B-Asp69 (ligand)
chain: B3 chain with K69D, A70S
notes: also called A8B-Arg69Asp
B7: C5a-(1-66,Cys27Ala)-A8B-Cys73 (ligand)
chain: B3 chain with K69R, A70S, R73C
notes: also called Ab8-Cys73; 67-FKRSLLC-73
B8: C5a-(1-66,Cys27Ala)-A8B-Leu70-Tyr73 (ligand)
chain: B3 chain with K69R, A70L, R73Y
notes: also called 67-FKRLLLY-73
B9: C5a-(1-66,Cys27Ala)-A8B-Leu70 (ligand)
chain: B3 chain with K69R, A70L
notes: also called 67-FKRLLLR-73
B10: C5a-(1-66,Cys27Arg)-A8B (ligand)
chain: B3 chain with A27R, K69R, A70S
notes: also called A8B-Arg27; A8B Arg 27

Tests used:
human C5a receptor [1] = biological target: T1, human C5a receptor (human, UniProt P21730 1-350); assay: cell-based or functional assay
T1 sequence (looked up): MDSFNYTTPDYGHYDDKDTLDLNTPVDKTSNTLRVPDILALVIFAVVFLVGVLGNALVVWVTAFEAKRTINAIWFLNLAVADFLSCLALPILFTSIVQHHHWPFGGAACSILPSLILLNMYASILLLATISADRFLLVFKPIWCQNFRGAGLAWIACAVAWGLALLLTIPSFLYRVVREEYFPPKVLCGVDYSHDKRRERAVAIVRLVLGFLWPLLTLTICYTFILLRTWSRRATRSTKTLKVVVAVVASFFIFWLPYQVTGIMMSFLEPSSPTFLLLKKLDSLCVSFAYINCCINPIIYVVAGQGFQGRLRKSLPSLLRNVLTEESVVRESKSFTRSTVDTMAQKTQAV

human C5a receptor [2] = biological target: T1, human C5a receptor; assay: competition with 125I-rhC5a tracer on RBL cells stably transfected with human C5a receptor, on ice, filtration
Procedure: (§1) For competitive binding studies, 40 μl of a reaction mixture containing a constant amount of ¹²⁵I-rhC5a as tracer (≈17000 cpm) and increasing concentrations of unlabeled C5a muteins were incubated in a microtiter plate on ice. […] The binding reaction was started by adding 25 μl of ice-cold RBL-C5aR cell suspension. After incubation on ice for 30 min, cell bound and free ¹²⁵I-rhC5a were separated by filtration of 60 μl through a microtitration-membrane plate (Multiscreen™-HV; 0.45 μm, MAHV N45, Millipore) using a vacuum manifold (Millipore). […] Punched out membranes were counted in a γ-counter (Packard, Canberra). The plot of cell-bound ¹²⁵I-rhC5a versus concentration of unlabeled competitor yields the half-maximal inhibitory concentrations (IC₅₀) (cf. FIG. 3, Table 1).

human C5a receptor [3] = biological target: T1, human C5a receptor; assay: competition with 125I-rhC5a on RBL cells stably transfected with human C5a receptor; reference rhC5a
Procedure: The values for rhC5a (“isolated” curve closest to the y-axis) are depicted as black circles, those for the mutein A8B as rhombi, for A8BLeu70 as triangles, for A8BLeu70Tyr73 as squares, for A8BArg as hexagons, for A8Bdel71-73 as dark-gray circles and those for A8BCys73 as light-gray circles.
as §1

Binder	ED50 [nM] (N-acetyl-beta-D-glucosaminidase release from C5aR-RBL cells) (human C5a receptor [1])	ID50 [nM] (inhibition of N-acetyl-beta-D-glucosaminidase release from C5aR-RBL cells) (human C5a receptor [1])	IC50 (human C5a receptor [2]) [nM]	fold difference of IC50 against rhC5a (human C5a receptor [3]) [fold]
B1	> 4000	17.4	26.9	–
B2	3.5	–	2.7	–
B3	> 4000	60.8	–	–
B4	> 4000	22.3	35.4	–
B5	36.8	–	30.1	–
B6	5.9	–	5.4	–
B7	> 4000	17.4	37.3	–
B8	> 4000	8.8	21.3	8
B9	> 4000	7.9	23.1	–
B10	> 4000	17.5	43.1	16
